In paper PMC4803053:

Target: DSB nucleosomes (position of the break not stated; EMSAs of Figures 5A and 6A) (human) (UniProt P0C0S8)

hMidm1m2–AID (Δ746–751/S813A/E829A/R847A/Q849A/L852A/K853A/N854A/D856A) (from UniProt Q9Y5B9 644-988) (domain or fragment)
hexasome formation in EMSA with DSB nucleosomes, against wild-type hMid–AID: 2 fold
